{"source": "patent US11813311B2", "about": "“Treatment and prevention of metabolic diseases” (Singapore Health Services PTE LTD., priority 2019, dated 2023)", "molecules": {"B1": {"name": "IL-11: Interleukin 11; recombinant human IL11 (UniProtKB:P20809) used to stimulate cells (protein, listed as Homo sapiens)", "chain": "MNCVCRLVLVVLSLWPDTAVAPGPPPGPPRVSPDPRAELDSTVLLTRSLLADTRQLAAQLRDKFPADGDHNLDSLPTLAMSAGALGALQLPGVLTRLRADLLSYLRHVQWLRRAGGSSLKTLEPELGTLQARLDRLLRRLQLLMSRLALPQPPPDPPAPPLAPPSSAWGGIRAAHAILGGLHLTLDWAVRGLLLLKTRL", "modifications": "IL-11 (UniProt P20809)", "notes": "Interleukin 11; recombinant human IL11 (UniProtKB:P20809) used to stimulate cells"}}, "key": {"[1]": {"test_system": "HSCs", "assay": "Matrigel invasion assay of HSCs", "format": "cell-based, human", "conditions": "48 h", "experimental": "The invasive behavior of human HSCs was assayed using 24-well Boyden chamber invasion assays (Cell Biolabs Inc.). Equal numbers of HSCs in serum-free HSC media were seeded in triplicates onto the ECM-coated matrigel and were allowed to invade towards HSC media containing 0.2% FBS. After 48 h of incubation with stimuli, media was aspirated and non-invasive cells were removed using cotton swabs. The cells that invaded towards the bottom chamber were stained with cell staining solution (Cell Biolabs Inc.) and invasive cells from 5 non-overlapping fields/membrane were imaged and counted under 40× magnification. For antibody inhibition experiments, HSCs were pretreated with X203, X209, or IgG control antibodies for 15 m prior to addition of stimuli."}, "[2]": {"biological_target": "IL-11Rα", "conditions": "IL-11Rα alone, low affinity; cited from earlier work"}, "[3]": {"test_system": "HSCs", "assay": "HSC-to-myofibroblast transformation (ACTA2/Collagen I, Operetta)", "format": "cell-based, human", "conditions": "IL-11 5 ng/ml, 24 h", "experimental": "Cells (atrial fibroblasts, HSCs and hepatocytes) were grown and maintained at 37° C. and 5% CO2. The growth medium was renewed every 2-3 days and cells were passaged at 80-90% confluence using standard trypsinization techniques. All the experiments were carried out at low cell passage (P1-P2). Cells were serum-starved for 16 h prior to stimulations. Stimulated cells were compared to unstimulated cells that have been grown for the same duration under the same conditions (serum-free media), but without the stimuli.\nHSCs (5300, ScienCell) were cultured in stellate cells complete media (5301, ScienCell) on poly-L-lysine-coated plates (2 μg/cm2, 0403, ScienCell).\nThe Operetta assay was performed mostly as described previously 11 with minor modifications described here: HSCs or hepatocytes were seeded in 96-well black CellCarrier plates (PerkinElmer) at a density of 5×10^3 cells per well. Following experimental conditions, cells were fixed in 4% paraformaldehyde (PFA, 28908, Thermo Fisher), permeabilized with 0.1% Triton X-100 (Sigma) and non-specific sites were blocked with 0.5% BSA and 0.1% Tween-20 in PBS. Cells were incubated overnight (4° C.) with primary antibodies (1:500), followed by incubation with the appropriate AlexaFluor 488 secondary antibodies (1:1000). Rhodamine Phalloidin staining (1:1000, R415, Thermo Fisher) was performed by overnight incubation (4° C.). […]"}, "[4]": {"test_system": "ERK", "assay": "ERK activation in HSCs (Western blot)", "format": "cell-based, human", "conditions": "stimulation with IL-11", "experimental": "Western blots were carried out on total protein extracts from HSCs and liver tissues. Both cells and frozen tissues were homogenized in radioimmunoprecipitation assay (RIPA) buffer containing protease and phosphatase inhibitors (Thermo Scientifics), followed by centrifugation to clear the lysate. Protein concentrations were determined by Bradford assay (Bio-Rad). Equal amount of protein lysates were separated by SDS-PAGE, transferred to PVDF membrane, and subjected to immunoblot analysis for the indicated primary antibodies. Proteins were visualized using the ECL detection system (Pierce) with the appropriate secondary antibodies."}, "[5]": {"test_system": "primary human hepatocytes", "assay": "Stimulation of primary human hepatocytes with IL11, hyperIL11, hyperIL6", "format": "cell-based", "experimental": "Human hepatocytes (5200, ScienCell) were grown and maintained in hepatocyte media (5201, ScienCell) supplemented with 2% fetal bovine serum (FBS) and 1% Penicillin-streptomycin.\nPrimary human hepatocytes (5200, ScienCell) were maintained in hepatocyte medium ([…], ScienCell) supplemented with 2% fetal bovine serum, 1% Penicillin-streptomycin at 37° C. and 5% CO2. Hepatocytes (P2-P3) were serum-starved overnight unless otherwise specified in the methods prior to 24 hours stimulation with different doses of various recombinant proteins as described.\nFor surface IL11RA, IL6R, and gp130 analysis, primary human hepatocytes and THP-1 cells were stained with IL11RA, IL6R, or gp130 antibody and the corresponding Alexa Fluor 488 secondary antibody. Cell death analysis was performed by staining primary human hepatocytes with Dead Cell Apoptosis Kit with Annexin V FITC and PI (V13242, Thermo Fisher). PI+ve cells were then quantified with the flow cytometer (Fortessa, BD Biosciences) and analyzed with FlowJo version X software (TreeStar).\nAlanine Aminotransferase (ALT) activity in the cell culture supernatant and mouse serum was measured using ALT Activity Assay Kit (ab105134, Abcam). Liver Glutathione (GSH) levels were measured using Glutathione Colorimetric Detection Kit (EIAGSHC, Thermo Fisher). Total hydroxyproline content in mouse livers was measured using Quickzyme Total Collagen assay kit (QZBtotco15, Quickzyme Biosciences). The levels of serum and liver triglycerides were measured using Triglyceride Assay Kit (ab65336, Abcam). Mouse serum levels of Aspartate Aminotransferase (AST) and cholesterol were measured using AST Assay Kit (ab105135, Abcam) and Cholesterol Assay Kit (ab65390; Abcam), respectively. All colorimetric assays were performed according to the manufacturer's protocol.\nWestern blots were carried out on total protein extracts from hepatocytes and liver tissues. Hepatocyte and liver tissue lysates were homogenized in RIPA Lysis and Extraction Buffer (89901, Thermo Scientific) containing protease and phosphatase inhibitors (Roche). Protein lysates were separated by SDS-PAGE and transferred to PVDF membranes. Protein bands were visualized using the ECL detection system (Pierce) with the appropriate secondary antibodies: anti-rabbit HRP or anti-mouse HRP."}, "[6]": {"test_system": "PSCs", "assay": "Pancreatic stellate cell (PSC) activation in vitro", "format": "cell-based", "conditions": "treatment with IL-11, 24 hours", "experimental": "FIGS. 48A and 48B. Box plots and images showing activation of pancreatic stellate cells (PSCs) to a αSMA-positive, collagen-expressing fibrogenic phenotype. (A) Quantification of high-content imaging assays for the percentage of ACTA2-positive cells and collagen I intensity/area following in vitro stimulation of PSCs for 24 hours with the indicated factors, in the presence or absence of neutralising anti-IL-11 RA antibody or IgG isotype control antibody. (B) Representative images for high-content imaging analysis of collagen I intensity/area following in vitro stimulation of PSCs for 24 hours with the indicated factors, in the presence of neutralising anti-IL-11 RA antibody or IgG isotype control antibody."}, "[7]": {"test_system": "HSCs", "assay": "CCL2 secretion by HSCs (ELISA)", "format": "cell-based, human", "conditions": "IL-11 5 ng/ml", "experimental": "FIG. 31A to 31H. Neutralizing anti-IL-11 and anti-IL11 RA antibodies protect HFMCD-fed mice from hepatic fibrosis and inflammation. (A) CCL2 in the supernatants of HSCs (n=4/group) without stimulus (−), with IL-11, or with TGFβ1 in the presence of IgG, X203, or X209 by ELISA; IL-11 (5 ng m1^−1), TGFβ1 (5 ng m1^−1), IgG, X203, and X209 (2 μg m1^−1). (B) Representative gross liver images, (C) Western blots of hepatic ERK activation status, (D) representative (scale bars, 100 μm) and (E) quantification of Masson's Trichrome stained images of livers after 5 weeks of early X203 and X209 treatments. (F) Liver hydroxyproline content (the values of NC and HFMCD 1 week diets are the same as those used in FIG. 25C, the values of IgG 3 and 6 weeks are the same as those used in FIG. 22F, n≥5/group), (G) relative RNA expression levels of fibrosis markers in the livers after 5 weeks treatment of X203 and X209 by qPCR, which confirms data from RNA-seq (the values of NC 6 week for Col1a1, Col1a2, Col3a1, and Acta2 are the same as those shown in FIG. 28D, n≥5/group), and (H) serum ALT levels (the values of NC and HFMCD 1 week are the same as those used in FIG. 25D, the values of IgG 3 and 6 weeks (2 weeks and 5 weeks treatment, respectively) are the same as those used in FIG. 22G, n≥5/group). […]"}}, "data": [{"molecule": "B1", "values": [{"measurement": "matrix invasion by HSCs", "setting": "[1]", "value": "promoted dose-dependent matrix invasion"}, {"measurement": "Kd", "setting": "[2]", "value": "~10", "unit": "nM"}, {"measurement": "activation of HSCs into ACTA2+ve myofibroblasts", "setting": "[3]", "value": "activated HSCs to a similar extent as TGFβ1 or PDGF"}, {"measurement": "ERK activation in HSCs", "setting": "[4]", "value": "directly activates ERK"}, {"measurement": "hepatocyte cell death", "setting": "[5]; IL11 0.625 ng/ml to 20 ng/ml", "value": "caused hepatocyte cell death"}, {"measurement": "expression of stress fibres in hepatocytes", "setting": "[5]; IL-11, dose range", "value": "progressive increase in expression of stress fibres"}, {"measurement": "release of ALT from hepatocytes", "setting": "[5]; physiological levels of IL-11", "value": "dose-dependent release of ALT"}, {"measurement": "PSC activation", "setting": "[6]", "value": "triggered"}, {"measurement": "HSC production of CCL2", "setting": "[7]", "value": "stimulated HSC production of CCL2"}]}]}
